Data: IntAct's records for PubMed 18552200

B1: DDB1- and CUL4-associated factor homolog 1 (Arabidopsis thaliana (Mouse-ear cress)), Q9M086 (parent)
chain: MDGQEHAEVPNSMVEDDQSVVAAEAIAELANSTGEPNPEEGEEQSVEDELIAKAQKLMEDITSVANNPNPNILHALSQLLESQESLFLEENGHFSNARGSHNSGKLCILIRENDEFFELISSTFLSENSYSTAVKAASARLLMNCSLTWMYPHVFDDAVTENFKNWVMEEAVKFPGEDSAKKEASDFEMLKTYSTGLLALSLASRGQIVEDVLTSGLSAKLMHYLRVRVLKEPSTSRIHTTETKHVSLKTKEEGRSRVRKIVDTVEGDHVLETDSGREMGQTDVQPDGEFEIDGRDVFNVSGVVDCKIKPGDDNSVRDDPSRHRLNRSKSRGRGRVHEGAPDTEVLLASPRLGRLLVRDRDLSKISDGRNAEDVTVCLGKMKSGIMEIEREDNDECFQGCIIGTKNITDLVKRAVGAAETEARAAHAPDDAAKAAGDAAAELVKTAALEEFKSSGSEEAAVSAATRAAITVIDAAEVSRNPTCVTSDQTTDVSEVSLPDIESLAQLQEKYCIQCLEILGEYVEVLGPVLHEKGVDVCIVLLERTSQLDDRSTVSPLLPDVMKLICALAAHRKFAAMFVERRGILKLLAVPRVSETFYGLSSCLYTIGSLQGIMERVCALPLVVIHQVVKLAIELLDCSQDQARKNSALFFAAAFVFRAILDAFDAQDSLQKLLAILKDAASVRTGANTDRSAPEVMTSSEKQMAFHTCFALRQYFRAHLLLLVDSIRPSRISRGGVPSSMKPNIRAAYKPLDISNEAVDAIFLQLQKDRRLGPTFVKAQWPAVNNFLASSGHVTMLELCQTPPVDRYLHDLLQYAFGVLHIVTSIPDGRKAIAHATLSNNRAGIAVILDAANISNSIVDPEIIQPALNVLINLVCPPPSLSNKPPLAQNHQPVPGQATTRPSTDVAVGTQSTGNAPQTPVAPASSGLVGDRRIFLGAGTGSAGLAAKLEQVYRQAREAVRGNDGIKILLKLLQPRIYVNPPATPDCLRALACRVLLGLARDDTIAQILTKLEVGKSLSELIRDSGGQSSGTDQGRWQAELAQVALELIGIVTNSGHATTLTASDAATPTLRRIERAAIAAATPITYDSKELLLLIHEHLQASGLGDTASALLKEAQLTPLPSSASPSSIAYSTTQEMSTPLAQEQWPSGRANSGFFTSKPKVCAHDEDPNSRSNAALSAKKKHLASSTLEMPTPVAQQQWPSGRANCGFCPSIPKINARDEDPSSRGNAAPSAKKKQLTFSPSFSSQSRKQSFSHDALPQSTQRINCCSNSDPALADTSETAAELVLKNDLDADAQFKTPISFPRKRKLSELRDSSVPGKRIDLGERRNSTFADGSGLQTPASALDANQSGSSRLGQMTPASQLRLPSDPQPSNPERLSLDSLVVQYLKHQHRQCLAPITTLPPVSLLHPHVCPEPKRLLEAPLNMTGRLGTRELQSFYSGVHGNRRDRQFVFSRFKSWRSFRDETALFTCIALLGGTNHIAVGSHAGEIKIFEASSGSMLESVSGHQAPVTLVQPYVSRDTQLLLSSSSSDVQLWDASSITGGPRHSFDGCKAAKFSNSGLQFAALSCEASRKDVLLYDVQTCSPCQKLTDTVTSSRSNPYSLVHFSPCDTLILWNGVLWDRRIPEKVRRFDQFTDYGGGGFHPSRNEVIINSEIWDMRTFKLLRSVPSLDQTAITFNSRGDVIYAMLRRNIEDVMSAVHTRRVKHPLFAAFRTLDAINYSDIATIPVDRCLLDFATEPTDSFLGLITMEDQEDMFSSARMYEIGRRRPTDDDSDPDDDDETEDEDEDDEEEDDLDRILGLAGDNSDSGDDDLSSEDNEDSVSDFDEEADILIDGDFMEELIEGENEDDGNGEDEDDDDDGEMQDFMSSGEEDDYRDNIRSS
partner: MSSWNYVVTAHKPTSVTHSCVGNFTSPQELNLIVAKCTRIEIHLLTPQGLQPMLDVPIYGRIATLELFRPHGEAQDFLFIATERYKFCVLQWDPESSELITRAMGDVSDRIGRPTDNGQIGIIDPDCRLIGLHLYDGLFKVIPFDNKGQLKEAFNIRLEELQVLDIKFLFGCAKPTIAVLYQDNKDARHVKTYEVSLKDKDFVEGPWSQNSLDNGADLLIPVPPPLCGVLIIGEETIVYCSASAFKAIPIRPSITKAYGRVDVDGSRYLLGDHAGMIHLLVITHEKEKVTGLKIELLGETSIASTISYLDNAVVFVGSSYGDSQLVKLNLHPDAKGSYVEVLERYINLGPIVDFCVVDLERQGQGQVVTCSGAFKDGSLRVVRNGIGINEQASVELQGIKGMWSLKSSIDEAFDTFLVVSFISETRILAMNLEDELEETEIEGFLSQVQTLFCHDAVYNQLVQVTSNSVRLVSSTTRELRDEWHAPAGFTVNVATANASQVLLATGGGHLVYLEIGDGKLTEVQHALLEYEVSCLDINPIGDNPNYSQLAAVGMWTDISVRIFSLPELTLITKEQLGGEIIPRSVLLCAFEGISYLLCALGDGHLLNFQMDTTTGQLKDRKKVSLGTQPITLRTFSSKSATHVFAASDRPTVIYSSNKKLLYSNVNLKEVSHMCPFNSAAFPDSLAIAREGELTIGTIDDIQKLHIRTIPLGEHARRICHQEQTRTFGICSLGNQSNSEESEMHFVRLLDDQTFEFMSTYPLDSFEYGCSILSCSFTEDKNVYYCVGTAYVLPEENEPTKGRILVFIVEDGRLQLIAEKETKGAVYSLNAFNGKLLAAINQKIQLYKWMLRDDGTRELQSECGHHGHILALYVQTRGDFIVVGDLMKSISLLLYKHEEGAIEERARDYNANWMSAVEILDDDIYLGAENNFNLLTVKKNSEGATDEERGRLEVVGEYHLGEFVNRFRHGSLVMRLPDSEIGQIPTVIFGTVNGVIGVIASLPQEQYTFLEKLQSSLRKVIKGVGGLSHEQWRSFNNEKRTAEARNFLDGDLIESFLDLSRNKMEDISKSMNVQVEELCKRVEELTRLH

Variants of: B1
Conditions: with ddb1a_arath DDB1A

| effect of a mutation on the interaction | Variant |
| --- | --- |
| decreasing interaction | D1622A;R1624A |
| decreasing interaction | D1622A;R1624A;D1658A;R1660A |
| decreasing interaction | D1658A;R1660A |
